# Source: patent US20170137467A1 (CHROMOTEK, published 2017)
# T1: BC2T D2V (human)
# T1 construct: position 2 library, row V
# T1 peptide: Ac-PVRKAAVSHWQQ-NH2
# T2: BC2T K4M (human)
# T2 construct: position 4 library, row M
# T2 peptide: Ac-PDRMAAVSHWQQ-NH2
# T3: BC2T R3A (human)
# T3 construct: position 3 library (BC2TR3X), row A
# T3 peptide: Ac-PDAKAAVSHWQQ-NH2
# T4: BC2T A6V (human)
# T4 construct: position 6 library (BC2TA6X), row V
# T4 peptide: Ac-PDRKAVVSHWQQ-NH2
# T5: BC2T P1M (human)
# T5 construct: position 1 library, row M
# T5 peptide: Ac-MDRKAAVSHWQQ-NH2
# T6: BC2T R3V (human)
# T6 construct: position 3 library (BC2TR3X), row V
# T6 peptide: Ac-PDVKAAVSHWQQ-NH2
# T7: BC2T A6M (human)
# T7 construct: position 6 library (BC2TA6X), row M
# T7 peptide: Ac-PDRKAMVSHWQQ-NH2
# T8: BC2T R3G (human)
# T8 construct: position 3 library (BC2TR3X), row G
# T8 peptide: Ac-PDGKAAVSHWQQ-NH2
# T9: BC2T V7M (human)
# T9 construct: position 7 library, row M
# T9 peptide: Ac-PDRKAAMSHWQQ-NH2
# T10: BC2T V7G (human)
# T10 construct: position 7 library, row G
# T10 peptide: Ac-PDRKAAGSHWQQ-NH2
# T11: BC2T K4G (human)
# T11 construct: position 4 library, row G
# T11 peptide: Ac-PDRGAAVSHWQQ-NH2
# T12: BC2T K4V (human)
# T12 construct: position 4 library, row V
# T12 peptide: Ac-PDRVAAVSHWQQ-NH2
# T13: BC2T A5M (human)
# T13 construct: position 5 library, row M
# T13 peptide: Ac-PDRKMAVSHWQQ-NH2
# T14: BC2T P1A (human)
# T14 construct: position 1 library, row A
# T14 peptide: Ac-ADRKAAVSHWQQ-NH2
# T15: BC2T V7A (human)
# T15 construct: position 7 library, row A
# T15 peptide: Ac-PDRKAAASHWQQ-NH2
# Columns and labels:
# Test in all cases: library pulldown, LC-MS of supernatant; ratio vs GFP-Nb control (0=captured, 1=not captured)
# BC2T D2V = molecular target: T1, BC2T D2V
# From the text: (§1) In total, 12 different BC2T libraries displaying all 20 proteinogenic amino acids in one single position of the peptide were used in immunoprecipitation experiments. […] The direct comparison with the GFP-Nb made it possible to determine the quantitative degree of peptide capture without the need of labeled standards. […] The more peptide was captured the more the value approximates 0. It was not possible to discriminate between isoleucine (I) and leucine (L) peptide versions since these peptides are isobaric.
# (§2) To investigate the binding specificity of the BC2T and derived mutants peptide libraries for each amino acid position of the sequence […] (SEQ ID NO:4) were synthesized with acetyl and amide groups located at the N-termini or C-termini respectively (Intavis). […] Incubations were performed in 300 μl PBS/0.01% CHAPS for 1 h on a HulaMixer (Life Technologies). Subsequent to a centrifugation step 10 μl supernatant were analyzed in a LC-MS procedure. Peptides were separated using an UltiMate3000 RSLCnano System (Thermo Scientific), composed of a C18 PepMap100μ-Precolumn (300 μm×5 mm; particle size: 5 μm; pore size: 100 Å—Thermo Scientific) and a C18 analytical column (Acclaim Rapid Separation LC (RSLC) Column: 150 mm×5 mm; particle size: 2.2 μm; pore size: 100 Å—Thermo Scientific). A step gradient was applied starting at 8% and ending after 20 min at 30% eluent B (80% acetonitrile, 20% H₂O, 0.1% formic acid).
# BC2T K4M = molecular target: T2, BC2T K4M
# From the text: as §1, §2
# BC2T R3A = molecular target: T3, BC2T R3A
# From the text: as §1, §2
# BC2T A6V = molecular target: T4, BC2T A6V
# From the text: as §1, §2
# BC2T P1M = molecular target: T5, BC2T P1M
# From the text: as §1, §2
# BC2T R3V = molecular target: T6, BC2T R3V
# From the text: as §1, §2
# BC2T A6(I/L1) = molecular target: T16, BC2T A6(I/L1)
# T16 construct: position 6 library (BC2TA6X), row I/L1
# From the text: as §1, §2
# BC2T A6M = molecular target: T7, BC2T A6M
# From the text: as §1, §2
# BC2T R3G = molecular target: T8, BC2T R3G
# From the text: as §1, §2
# BC2T D2(I/L2) = molecular target: T17, BC2T D2(I/L2)
# T17 construct: position 2 library, row I/L2
# From the text: as §1, §2
# BC2T V7M = molecular target: T9, BC2T V7M
# From the text: as §1, §2
# BC2T V7G = molecular target: T10, BC2T V7G
# From the text: as §1, §2
# BC2T K4G = molecular target: T11, BC2T K4G
# From the text: as §1, §2
# BC2T R3(I/L2) = molecular target: T18, BC2T R3(I/L2)
# T18 construct: position 3 library (BC2TR3X), row I/L2
# From the text: as §1, §2
# BC2T P1(I/L2) = molecular target: T19, BC2T P1(I/L2)
# T19 construct: position 1 library, row I/L2
# From the text: as §1, §2
# BC2T P1(I/L1) = molecular target: T20, BC2T P1(I/L1)
# T20 construct: position 1 library, row I/L1
# From the text: as §1, §2
# BC2T K4V = molecular target: T12, BC2T K4V
# From the text: as §1, §2
# BC2T A5M = molecular target: T13, BC2T A5M
# From the text: as §1, §2
# BC2T P1A = molecular target: T14, BC2T P1A
# From the text: as §1, §2
# BC2T K4(I/L1) = molecular target: T21, BC2T K4(I/L1)
# T21 construct: position 4 library, row I/L1
# From the text: as §1, §2
# BC2T A6(I/L2) = molecular target: T22, BC2T A6(I/L2)
# T22 construct: position 6 library (BC2TA6X), row I/L2
# From the text: as §1, §2
# BC2T V7A = molecular target: T15, BC2T V7A
# From the text: as §1, §2
# BC2T V7(I/L2) = molecular target: T23, BC2T V7(I/L2)
# T23 construct: position 7 library, row I/L2
# From the text: as §1, §2
Binder,ratio (BC2T D2V),ratio (BC2T K4M),ratio (BC2T R3A),ratio (BC2T A6V),ratio (BC2T P1M),ratio (BC2T R3V),ratio (BC2T A6(I/L1)),ratio (BC2T A6M),ratio (BC2T R3G),ratio (BC2T D2(I/L2)),ratio (BC2T V7M),ratio (BC2T V7G),ratio (BC2T K4G),ratio (BC2T R3(I/L2)),ratio (BC2T P1(I/L2)),ratio (BC2T P1(I/L1)),ratio (BC2T K4V),ratio (BC2T A5M),ratio (BC2T P1A),ratio (BC2T K4(I/L1)),other results
"BC2 nanobody (BC2-Nb) (VHH, immobilised on agarose/sepharose beads in this assay; also called BC2 nanotrap (immobilised form); not shown: C-terminal 6xHis-tag added by pHEN6 vector) VHH: QVQLVESGGGLVQPGGSLTLSCTASGFTLDHYDIGWFRQAPGKEREGVSCINNSDDDTYYADSVKGRFTIFMDNAKDTVYLQMNSLKPEDTAIYYCAEARGCKRGRYEYDFWGQGTQVTVSS",0.1,0.1,0.7,0.3,0.2,0.3,0.7,1,0.9,0.2,0.3,0.7,0.6,0.5,0.3,0.4,0.1,0.1,0.1,0.1,ratio (BC2T A6(I/L2)): 0.9; ratio (BC2T V7A): 0.4; ratio (BC2T V7(I/L2)): 0.2
"BC2-NbR106S (VHH, immobilised on beads in this assay; not shown: C-terminal 6xHis-tag added by pHEN6 vector) VHH: QVQLVESGGGLVQPGGSLTLSCTASGFTLDHYDIGWFRQAPGKEREGVSCINNSDDDTYYADSVKGRFTIFMDNAKDTVYLQMNSLKPEDTAIYYCAEARGCKRGSYEYDFWGQGTQVTVSS",0.2,0.5,0.9,0.6,0.5,0.7,0.8,0.9,1,0.3,0.5,0.8,0.9,0.9,0.6,0.7,0.2,0.2,0.3,0.4,ratio (BC2T A6(I/L2)): 0.9; ratio (BC2T V7A): 0.7; ratio (BC2T V7(I/L2)): 0.4
"BC2-NbR106E (VHH, immobilised on beads in this assay; not shown: C-terminal 6xHis-tag added by pHEN6 vector) VHH: QVQLVESGGGLVQPGGSLTLSCTASGFTLDHYDIGWFRQAPGKEREGVSCINNSDDDTYYADSVKGRFTIFMDNAKDTVYLQMNSLKPEDTAIYYCAEARGCKRGEYEYDFWGQGTQVTVSS",0.1,0.3,1,0.3,0.4,0.5,0.7,1,1,0.2,0.3,0.7,0.9,0.9,0.5,0.6,0.1,0.1,0.2,0.3,ratio (BC2T A6(I/L2)): 0.8; ratio (BC2T V7A): 0.5; ratio (BC2T V7(I/L2)): 0.2
